The target in the data set is T1, ArcA-His6 (acetyl phosphate present or absent) (Escherichia coli K1 Rs218 (O18:H7:K1)) (UniProt P0A9Q1).
T1 sequence: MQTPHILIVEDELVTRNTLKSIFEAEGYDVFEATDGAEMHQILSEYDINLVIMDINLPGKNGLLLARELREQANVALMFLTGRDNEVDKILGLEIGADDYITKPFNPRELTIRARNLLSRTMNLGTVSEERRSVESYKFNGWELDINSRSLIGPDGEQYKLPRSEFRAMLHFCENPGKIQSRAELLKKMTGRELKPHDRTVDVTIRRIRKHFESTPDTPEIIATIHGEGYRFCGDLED
As to the kind of experiment: EMSA. To be noted: 10 mM Tris-HCl pH 7.4, 50 mM KCl, 0.1 mM EDTA, 0.2 mM DTT. (In general: Mobility shift assays separate free from complexed probe on a gel.)

With “ACGAACTGTTCACCGCCACTCGCGGTCAGGGCGCACAGCTGAACGGCTACCGTCTGCGCGGCAGCACCGCTCGCGATCTCGACGGTACTATTCTGGCGACCGGCTTCCCGTTCAAAGCAAAACAGTACGCCACTACCTACATCAACATCGTCGGCA (double strand) [suhB gene fragment]”, the binding entry (+/- 30 mM acetyl phosphate, 37 C 30 min, 6% PAGE in 0.5x TBE, GelRed stain) is “no binding”. On to “ATTTGGTTGTAACACGGCGTATGGCACATGCGTCGTTAGCGGTCTGGGGACGTTAAAGGGGACAATCCACTCCTTGCTCGAGCAGACAAACCAGGTAGCCGGAATGTGCAAGTCAATGAGGATGCTGATAAGACGCCTAACCAGCGTGGCGATTCGGTTTGACGCCTGGGAAGAGACCAGGGTGCAACGATGAGGGCATTTATGGAACCGCGACAAAGTGTGGTGCCGTAACTGGCTAAGTGCTCTCAGC (double strand) [sRNA-17 promoter (PsRNA-17)]”, for which the binding result ([…]) is “binds”.

These data come from publication PMC7719688.
